Measurements from publication PMC6813240, “Functional Differentiation of Duplicated Flavonoid 3-O-Glycosyltransferases in the Flavonol and Anthocyanin Biosynthesis of Freesia hybrida” (Frontiers in Plant Science, 2019).

Columns and labels:
[1] = substrate: O=c1c(O)c(-c2ccc(O)c(O)c2)oc2cc(O)cc(O)c12; experiment: HPLC glucosyltransferase assay; type: biochemical, Freesia hybrid cultivar; conditions: 10 mM UDP-glucose, 50 mM HEPES pH 8.0, 30°C, 2 min, acceptor 10-60 µM
[2] = substrate: O=c1c(O)c(-c2ccc(O)cc2)oc2cc(O)cc(O)c12; experiment: purified protein; conditions: 10 mM UDP-glucose, 50 mM HEPES pH 8.0, 30°C, 2 min
[3] = acceptor 10-60 µM (Km lies far below this range)

B1: Fh3GT2 (Freesia hybrid cultivar) (protein)
chain: MGSSQPPTRRRHVAVIAFPFSSHPAALFTLARAMAAAAPGTTFSFLSFPGSVDSLSKIPCRPENLRLCHVADPTPPGAIPPEQRIGMFLAAAPAYLRAGIKAAEALDGGGVTCLVSDSLLWMTADVAEEKGVPWVAVWTGGTSALVVHVYTDRLRKFYGVVHGDAIHPRADELLDVNVVPGFSEHRVRDLPEGILWKVDSPFASLVDTMVSKFPRAVAVVANTIPGLDPGLDAAFASKFKNYLPIGPFTILSPLPSPQHDNECVAWLDRQAPASVAYVSFGTLAALPPSELTELANGLEASGVPFLWSMKNKEALPAGFLDRTRGKGLVVDWAPQASVLAHNAVGGFVTHCGWSSVMESVAAGVPMICRSVFGDQTMTAKMVCNAWKIGFGFSGGAITREEVVRGLRMVLRGEEGGREIRERSSELKSLAWREVKVEGRTVKNLNSLIEIING
notes: recombinant from E. coli BL21 (DE3), pET32a, N-terminal 6x His tag, Ni Sepharose purified
Km [1]: 16.62 ± 0.03 µM
kcat [1]: 1.86 ± 0.0023 s⁻¹
kcat/Km [1]: 112000 M⁻¹ s⁻¹
Km [2, 3]: 0.13 ± 0.01 µM
kcat [2, 3]: 0.73 s⁻¹
kcat/Km [2, 3]: 5.46e+06 M⁻¹ s⁻¹

B2: Fh3GT1 (Freesia hybrid cultivar) (protein)
chain: MGSADRSHVALLAFPFGTHAAPLLSLGLNLASSAPHGTTFSFLSNRRPVSLPPNSAIKFYEIADGSDPEHEGHVHPEEEVRVFMEETPGNYKKALEAAVDRCGGQRVTCIVADAFLWFVGDIAAEFGVHWVPLWTGGPCSFLAHLYTDMLRNKIGTGKEADPDEDLQFLPGLSGFRVRDLPDDIVTGDLTGAFASLLHRMSIEIPRSAAAIAINTFEGLHPDIDADLASKFKKSLPIGPLNLLNPTLNQPDRFSCLAWLDKFEPHSVAYVSFGTLAALTEAELVELASGLEQSGVPFLWSLKEPGQLPAGFLDRTKDRGLVVPWVPQAEALKHVAVGASLSHCGWNSVMESVTSGVPMLCRPFLGDQTMNARAVSHVWKVGVTFENGTMTRANVAEAMKKVVVGEEGRKMRERAAAIREMAAGSVRPGGSSVQNFKALLDIVIAR
notes: as for B1
Km [1]: 96.38 ± 5.03 µM
kcat [1]: 4.51 ± 0.039 s⁻¹
kcat/Km [1]: 46900 M⁻¹ s⁻¹
Km ([2]; acceptor 10-60 µM): 45.38 ± 3.90 µM
